Data published in IntAct's records for PubMed 29892012.

B1: Ceramide transfer protein (Homo sapiens), Q9Y5P4 (parent)
chain: MSDNQSWNSSGSEEDPETESGPPVERCGVLSKWTNYIHGWQDRWVVLKNNALSYYKSEDETEYGCRGSICLSKAVITPHDFDECRFDISVNDSVWYLRAQDPDHRQQWIDAIEQHKTESGYGSESSLRRHGSMVSLVSGASGYSATSTSSFKKGHSLREKLAEMETFRDILCRQVDTLQKYFDACADAVSKDELQRDKVVEDDEDDFPTTRSDGDFLHSTNGNKEKLFPHVTPKGINGIDFKGEAITFKATTAGILATLSHCIELMVKREDSWQKRLDKETEKKRRTEEAYKNAMTELKKKSHFGGPDYEEGPNSLINEEEFFDAVEAALDRQDKIEEQSQSEKVRLHWPTSLPSGDAFSSVGTHRFVQKPYSRSSSMSSIDLVSASDDVHRFSSQVEEMVQNHMTYSLQDVGGDANWQLVVEEGEMKVYRREVEENGIVLDPLKATHAVKGVTGHEVCNYFWNVDVRNDWETTIENFHVVETLADNAIIIYQTHKRVWPASQRDVLYLSVIRKIPALTENDPETWIVCNFSVDHDSAPLNNRCVRAKINVAMICQTLVSPPEGNQEISRDNILCKITYVANVNPGGWAPASVLRAVAKREYPKFLKRFTSYVQEKTAGKPILF
B2: Centrosomal protein POC5 (Homo sapiens), Q8NA72 (parent)
chain: MSSDEEKYSLPVVQNDSSRGSSVSSNLQEEYEELLHYAIVTPNIEPCASQSSHPKGELVPDVRISTIHDILHSQGNNSEVRETAIEVGKGCDFHISSHSKTDESSPVLSPRKPSHPVMDFFSSHLLADSSSPATNSSHTDAHEILVSDFLVSDENLQKMENVLDLWSSGLKTNIISELSKWRLNFIDWHRMEMRKEKEKHAAHLKQLCNQINELKELQKTFEISIGRKDEVISSLSHAIGKQKEKIELMRTFFHWRIGHVRARQDVYEGKLADQYYQRTLLKKVWKVWRSVVQKQWKDVVERACQARAEEVCIQISNDYEAKVAMLSGALENAKAEIQRMQHEKEHFEDSMKKAFMRGVCALNLEAMTIFQNRNDAGIDSTNNKKEEYGPGVQGKEHSAHLDPSAPPMPLPVTSPLLPSPPAAVGGASATAVPSAASMTSTRAASASSVHVPVSALGAGSAATAASEEMYVPRVVTSAQQKAGRTITARITGRCDFASKNRISSSLAIMGVSPPMSSVVVEKHHPVTVQTIPQATAAKYPRTIHPESSTSASRSLGTRSAHTQSLTSVHSIKVVD
partner: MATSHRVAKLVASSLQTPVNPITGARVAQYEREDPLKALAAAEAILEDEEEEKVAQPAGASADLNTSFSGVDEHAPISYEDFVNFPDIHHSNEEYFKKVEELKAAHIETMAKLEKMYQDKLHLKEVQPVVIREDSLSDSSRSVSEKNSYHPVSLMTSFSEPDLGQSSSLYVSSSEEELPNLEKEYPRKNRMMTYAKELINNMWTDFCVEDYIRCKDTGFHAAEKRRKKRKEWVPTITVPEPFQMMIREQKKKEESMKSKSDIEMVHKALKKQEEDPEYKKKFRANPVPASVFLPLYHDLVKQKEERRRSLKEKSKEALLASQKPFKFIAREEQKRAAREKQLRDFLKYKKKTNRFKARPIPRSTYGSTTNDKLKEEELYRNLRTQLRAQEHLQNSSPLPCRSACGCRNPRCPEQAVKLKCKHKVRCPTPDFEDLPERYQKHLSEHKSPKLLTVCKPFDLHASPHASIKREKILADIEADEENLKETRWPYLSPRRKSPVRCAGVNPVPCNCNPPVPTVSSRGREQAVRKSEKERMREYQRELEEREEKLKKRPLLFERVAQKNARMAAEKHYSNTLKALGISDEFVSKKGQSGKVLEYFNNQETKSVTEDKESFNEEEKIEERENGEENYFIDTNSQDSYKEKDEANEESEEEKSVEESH
B3: E3 ubiquitin-protein ligase LNX (Homo sapiens), Q8TBB1 (parent)
chain: MNQPESANDPEPLCAVCGQAHSLEENHFYSYPEEVDDDLICHICLQALLDPLDTPCGHTYCTLCLTNFLVEKDFCPMDRKPLVLQHCKKSSILVNKLLNKLLVTCPFREHCTQVLQRCDLEHHFQTSCKGASHYGLTKDRKRRSQDGCPDGCASLTATAPSPEVSAAATISLMTDEPGLDNPAYVSSAEDGQPAISPVDSGRSNRTRARPFERSTIRSRSFKKINRALSVLRRTKSGSAVANHADQGRENSENTTAPEVFPRLYHLIPDGEITSIKINRVDPSESLSIRLVGGSETPLVHIIIQHIYRDGVIARDGRLLPGDIILKVNGMDISNVPHNYAVRLLRQPCQVLWLTVMREQKFRSRNNGQAPDAYRPRDDSFHVILNKSSPEEQLGIKLVRKVDEPGVFIFNVLDGGVAYRHGQLEENDRVLAINGHDLRYGSPESAAHLIQASERRVHLVVSRQVRQRSPDIFQEAGWNSNGSWSPGPGERSNTPKPLHPTITCHEKVVNIQKDPGESLGMTVAGGASHREWDLPIYVISVEPGGVISRDGRIKTGDILLNVDGVELTEVSRSEAVALLKRTSSSIVLKALEVKEYEPQEDCSSPAALDSNHNMAPPSDWSPSWVMWLELPRCLYNCKDIVLRRNTAGSLGFCIVGGYEEYNGNKPFFIKSIVEGTPAYNDGRIRCGDILLAVNGRSTSGMIHACLARLLKELKGRITLTIVSWPGTFL
partner: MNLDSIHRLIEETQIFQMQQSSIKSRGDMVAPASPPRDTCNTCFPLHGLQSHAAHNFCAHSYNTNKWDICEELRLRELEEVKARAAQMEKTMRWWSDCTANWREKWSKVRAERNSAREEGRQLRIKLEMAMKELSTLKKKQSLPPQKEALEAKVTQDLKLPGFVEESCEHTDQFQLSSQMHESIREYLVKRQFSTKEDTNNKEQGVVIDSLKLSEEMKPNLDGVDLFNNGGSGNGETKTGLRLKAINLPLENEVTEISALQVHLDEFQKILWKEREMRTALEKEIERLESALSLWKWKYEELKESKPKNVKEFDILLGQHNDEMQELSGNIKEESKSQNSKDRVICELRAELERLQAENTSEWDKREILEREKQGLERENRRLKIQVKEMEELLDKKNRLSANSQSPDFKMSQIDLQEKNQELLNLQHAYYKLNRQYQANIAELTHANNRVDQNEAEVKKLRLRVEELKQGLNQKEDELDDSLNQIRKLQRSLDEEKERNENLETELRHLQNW
B4: Vasculin (Homo sapiens), Q86WP2 (parent)
chain: MAQHDFAPAWLNFPTPPSSTKSSLNFEKHSENFAWTENRYDVNRRRHNSSDGFDSAIGRPNGGNFGRKEKNGWRTHGRNGTENINHRGGYHGGSSRSRSSIFHAGKSQGLHENNIPDNETGRKEDKRERKQFEAEDFPSLNPEYEREPNHNKSLAAGVWEYPPNPKSRAPRMLVIKKGNTKDLQLSGFPVVGNLPSQPVKNGTGPSVYKGLVPKPAAPPTKPTQWKSQTKENKVGTSFPHESTFGVGNFNAFKSTAKNFSPSTNSVKECNRSNSSSPVDKLNQQPRLTKLTRMRTDKKSEFLKALKRDRVEEEHEDESRAGSEKDDDSFNLHNSNSTHQERDINRNFDENEIPQENGNASVISQQIIRSSTFPQTDVLSSSLEAEHRLLKEMGWQEDSENDETCAPLTEDEMREFQVISEQLQKNGLRKNGILKNGLICDFKFGPWKNSTFKPTTENDDTETSSSDTSDDDDV
partner: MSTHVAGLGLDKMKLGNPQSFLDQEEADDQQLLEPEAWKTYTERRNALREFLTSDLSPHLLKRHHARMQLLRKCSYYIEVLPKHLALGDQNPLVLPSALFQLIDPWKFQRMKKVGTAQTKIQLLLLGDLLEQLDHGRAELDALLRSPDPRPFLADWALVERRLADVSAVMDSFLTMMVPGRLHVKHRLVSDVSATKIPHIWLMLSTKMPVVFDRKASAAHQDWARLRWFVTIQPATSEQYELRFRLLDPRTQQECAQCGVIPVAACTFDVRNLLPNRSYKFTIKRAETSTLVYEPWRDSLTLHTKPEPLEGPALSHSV

Variants of: B1
Conditions: with ar6p1_human ARL6IP1, Q15041
Sequence of ar6p1_human ARL6IP1, Q15041 (Q15041 whole entry): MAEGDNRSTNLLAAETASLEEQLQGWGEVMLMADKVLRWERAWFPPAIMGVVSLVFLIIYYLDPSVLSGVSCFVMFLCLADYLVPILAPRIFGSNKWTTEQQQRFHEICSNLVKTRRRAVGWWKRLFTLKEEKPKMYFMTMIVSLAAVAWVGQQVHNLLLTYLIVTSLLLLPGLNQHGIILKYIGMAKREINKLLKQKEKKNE

Question: With T166A as the variant, how does the “effect of a mutation on the interaction” value read?
Answer: with no effect

Variants of: B1
Conditions: with rtn3_human RTN3, O95197
Sequence of rtn3_human RTN3, O95197 (O95197 whole entry): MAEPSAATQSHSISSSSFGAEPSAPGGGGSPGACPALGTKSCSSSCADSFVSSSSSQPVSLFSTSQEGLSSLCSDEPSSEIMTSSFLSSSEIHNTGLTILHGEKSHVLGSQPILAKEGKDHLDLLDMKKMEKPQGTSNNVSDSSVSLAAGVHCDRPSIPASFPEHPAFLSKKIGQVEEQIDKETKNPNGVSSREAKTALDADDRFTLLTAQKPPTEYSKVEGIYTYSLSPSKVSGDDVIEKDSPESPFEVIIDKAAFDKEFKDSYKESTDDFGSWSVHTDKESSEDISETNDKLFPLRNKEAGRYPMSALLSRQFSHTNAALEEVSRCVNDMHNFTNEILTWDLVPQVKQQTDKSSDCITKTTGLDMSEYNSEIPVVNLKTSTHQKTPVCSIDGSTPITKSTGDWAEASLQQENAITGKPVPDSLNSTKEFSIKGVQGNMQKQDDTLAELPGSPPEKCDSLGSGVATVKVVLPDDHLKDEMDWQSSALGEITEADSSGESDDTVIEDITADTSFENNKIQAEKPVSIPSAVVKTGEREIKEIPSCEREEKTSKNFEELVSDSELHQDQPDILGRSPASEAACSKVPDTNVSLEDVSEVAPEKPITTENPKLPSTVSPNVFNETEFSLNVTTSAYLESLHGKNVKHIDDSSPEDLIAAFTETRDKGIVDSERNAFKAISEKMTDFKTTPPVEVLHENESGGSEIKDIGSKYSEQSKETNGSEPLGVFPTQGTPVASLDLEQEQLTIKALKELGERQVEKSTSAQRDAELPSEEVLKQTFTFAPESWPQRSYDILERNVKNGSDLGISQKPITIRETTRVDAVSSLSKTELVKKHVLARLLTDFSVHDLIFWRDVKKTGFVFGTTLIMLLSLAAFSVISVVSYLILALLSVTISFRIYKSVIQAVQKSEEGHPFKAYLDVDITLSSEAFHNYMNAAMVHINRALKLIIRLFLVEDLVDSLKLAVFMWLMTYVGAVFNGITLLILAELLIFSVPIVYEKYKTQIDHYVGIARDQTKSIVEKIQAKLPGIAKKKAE

Question: Which “effect of a mutation on the interaction” value does the source give for T166A here?
Answer: with no effect

Variants of: B1
Conditions: with rtn4_human RTN4, Q9NQC3
Sequence of rtn4_human RTN4, Q9NQC3 (Q9NQC3 whole entry): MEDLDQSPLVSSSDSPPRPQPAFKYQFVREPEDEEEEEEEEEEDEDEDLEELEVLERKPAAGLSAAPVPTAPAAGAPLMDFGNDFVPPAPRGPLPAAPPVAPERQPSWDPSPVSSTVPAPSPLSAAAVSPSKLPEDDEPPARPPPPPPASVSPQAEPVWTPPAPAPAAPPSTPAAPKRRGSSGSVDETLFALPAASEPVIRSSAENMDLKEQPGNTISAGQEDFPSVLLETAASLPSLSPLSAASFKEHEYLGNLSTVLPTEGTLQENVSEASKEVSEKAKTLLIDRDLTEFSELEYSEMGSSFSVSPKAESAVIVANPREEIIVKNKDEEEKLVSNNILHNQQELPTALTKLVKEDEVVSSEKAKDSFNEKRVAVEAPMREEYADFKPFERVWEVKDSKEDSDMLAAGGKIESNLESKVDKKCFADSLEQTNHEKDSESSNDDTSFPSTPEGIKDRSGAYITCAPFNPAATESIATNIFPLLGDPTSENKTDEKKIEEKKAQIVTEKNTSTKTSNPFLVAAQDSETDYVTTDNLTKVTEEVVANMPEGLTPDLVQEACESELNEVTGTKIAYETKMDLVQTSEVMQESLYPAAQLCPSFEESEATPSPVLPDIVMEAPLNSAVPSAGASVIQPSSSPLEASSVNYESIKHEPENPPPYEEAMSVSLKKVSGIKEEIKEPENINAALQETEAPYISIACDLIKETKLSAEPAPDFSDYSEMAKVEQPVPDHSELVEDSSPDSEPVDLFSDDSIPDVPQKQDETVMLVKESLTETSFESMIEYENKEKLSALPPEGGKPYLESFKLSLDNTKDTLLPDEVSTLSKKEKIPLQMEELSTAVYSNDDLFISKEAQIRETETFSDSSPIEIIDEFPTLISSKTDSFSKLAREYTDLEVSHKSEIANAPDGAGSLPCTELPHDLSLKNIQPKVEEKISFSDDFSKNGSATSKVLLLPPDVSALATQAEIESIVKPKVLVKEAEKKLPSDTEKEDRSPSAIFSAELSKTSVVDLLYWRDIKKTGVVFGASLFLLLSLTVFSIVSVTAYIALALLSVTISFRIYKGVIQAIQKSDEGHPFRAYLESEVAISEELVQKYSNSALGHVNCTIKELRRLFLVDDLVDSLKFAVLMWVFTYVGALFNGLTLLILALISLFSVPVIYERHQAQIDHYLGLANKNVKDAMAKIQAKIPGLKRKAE

Question: For T166A, which “effect of a mutation on the interaction” value is on record?
Answer: with no effect

Variants of: B2
Conditions: with FAM161A

Question: MSSDEEKYSLPVVQNDSSRGSSVSSNLQEEYEELLHYAIVTPNIEPCASQSSHPKGELVPDVRISTIHDILHSQGNNSEVRETAIEVGKGCDFHISSHSKTDESSPVLSPRKPSHPVMDFFSSHLLADSSSPATNSSHTDAHEILVSDFLVSDENLQKMENVLDLWSSGLKTNIISELSKWRLNFIDWHRMEMRKEKEKHAAHLKQLCNQINELKELQKTFEISIGRKDEVISSLSHAIGKQKEKIELMRTFFHWRIGHVRARQDVYEGKLADQYYQRTLLKKVWKVWRSVVQKQWKDVVERACQARAEEVCIQISNDYEAKVAMLSGALENAKAEIQRMQHEKEHFEDSMKKAFMRGVCALNLEAMTIFQNRNDAGIDSTNNKKEEYGPGVQGKEHSAHLDPSAPPMPLPVTSPLLPSPPAAVGGASATAVPSAASMTSTRAASASSVHVPVSALGAGSAATAASEETYVPRVVTSAQQKAGRTITARITGRCDFASKNRISSSLAIMGVSPPMSSVVVEKHHPVTVQTIPQATAAKYPRTIHPESSTSASRSLGTRSAHTQSLTSVHSIKVVD [M469T] was tested. Which “effect of a mutation on the interaction” value did it give?
Answer: with no effect

Variants of: B3
Conditions: with CCDC102B

Question: With E295K as the variant, how does the “effect of a mutation on the interaction” value read?
Answer: disrupting interaction strength

Variants of: B4
Conditions: with fnd11_human FNDC11, Q9BVV2

Question: MAQHDFAPAWLNFPTPPSSTKSSLNFEKHSENFAWTENRYDVNRRRHNSSDGFDSAIGRPNGGNFGRKEKNGWRTHGRNGTENINHRGGYHGGSSRSRSSIFHAGKSQGLHENNIPDNETGRKEDKRECKQFEAEDFPSLNPEYEREPNHNKSLAAGVWEYPPNPKSRAPRMLVIKKGNTKDLQLSGFPVVGNLPSQPVKNGTGPSVYKGLVPKPAAPPTKPTQWKSQTKENKVGTSFPHESTFGVGNFNAFKSTAKNFSPSTNSVKECNRSNSSSPVDKLNQQPRLTKLTRMRTDKKSEFLKALKRDRVEEEHEDESRAGSEKDDDSFNLHNSNSTHQERDINRNFDENEIPQENGNASVISQQIIRSSTFPQTDVLSSSLEAEHRLLKEMGWQEDSENDETCAPLTEDEMREFQVISEQLQKNGLRKNGILKNGLICDFKFGPWKNSTFKPTTENDDTETSSSDTSDDDDV [R129C] was tested. Which “effect of a mutation on the interaction” value did it give?
Answer: with no effect

Variants of: B4
Conditions: with fnd11_human FNDC11, Q9BVV2
Remark: another data set of the same source

Question: With MAQHDFAPAWLNFPTPPSSTKSSLNFEKHSENFAWTENRYDVNRRRHNSSDGFDSAIGRPNGGNFGRKEKNGWRTHGRNGTENINHRGGYHGGSSRSRSSIFHAGKSQGLHENNIPDNETGRKEDKRERKQFEAEDFPSLNPEYEREPNHNKSLAAGVWEYPPNPKSRAPRMLVIKKGNTKDLQLSGFPVVGNLPSQPVKNGTGPSVYKGLVPKPAAPPTKPTQWKSQTKENKVGTSFPHESTFGVGNFNAFKSTAKNFSPSTNSVKECNRSNSSSPVDKLNQQPRLTKLTQMRTDKKSEFLKALKRDRVEEEHEDESRAGSEKDDDSFNLHNSNSTHQERDINRNFDENEIPQENGNASVISQQIIRSSTFPQTDVLSSSLEAEHRLLKEMGWQEDSENDETCAPLTEDEMREFQVISEQLQKNGLRKNGILKNGLICDFKFGPWKNSTFKPTTENDDTETSSSDTSDDDDV [R292Q] as the variant, how does the “effect of a mutation on the interaction” value read?
Answer: with no effect
